For test [1], the target named is T1, c-MET (hepatocyte growth factor receptor) on A549 cells (human, UniProt P08581 25-1390).
T1 construct: whole, on cells; Endogenous receptor of A549 cells; phosphorylation read out in cell lysates; also called HGFR
The test is described as follows: flow cytometry, A549 cells (c-MET+ EGFR++). A general note: Flow cytometry measures light scatter and fluorescence of single cells or particles in a stream.

Test [2] has as its target T2, c-MET on cells (human, UniProt P08581).
T2 construct: endogenous receptor on the cell surface; for A549 cells m4 is used; also called HGFR; on NCI-H441, EBC-1, A431, MKN-45, SK-MEL2 or HepG2 cells (cell line under assay)
The test is described as follows: flow cytometry, HepG2 cells (c-MET+ EGFR+).

For test [3], the target named is T2, c-MET on cells. The test is described as follows: flow cytometry, A431 cells (c-MET+ EGFR+++).
Test [4] concerns the target T2, c-MET on cells. The test is described as follows: flow cytometry, SK-MEL2 cells (c-MET+ EGFR-).
Test [5] addresses T2, c-MET on cells. The test is described as follows: flow cytometry, EBC-1 cells (c-MET+++ EGFR++).
In test [6] the target is T2, c-MET on cells. The test is described as follows: flow cytometry, MKN-45 cells (c-MET+++ EGFR++).
The target in test [7] is T3, biotinylated recombinant human c-MET ECD (HGFR extracellular domain) (human, UniProt P08581 25-932, biotinylated (sites not given)).
T3 construct: extracellular domain; also called human c-MET ECD-His
The test is described as follows: BLI (Octet), antibody on anti-human Fc biosensors, soluble c-MET ECD as analyte. For orientation: In BLI a coated tip is dipped into the sample, and binding shifts an interference pattern.

The target of test [8] is T4, EGFR (epidermal growth factor receptor) on A549 cells (human, UniProt P00533 25-1210).
T4 construct: whole, on cells; Endogenous receptor of A549 cells; phosphorylation read out in cell lysates
The test is described as follows: flow cytometry, A549 cells (c-MET+ EGFR++).

For test [9], the target named is T5, EGFR on cells (human, UniProt P00533).
T5 construct: endogenous receptor on the cell surface; for A549 cells m5 is used; also called on NCI-H441, EBC-1, A431, MKN-45, HepG2 or T47D cells (cell line under assay)
The test is described as follows: flow cytometry, HepG2 cells (c-MET+ EGFR+).

Test [10] concerns the target T5, EGFR on cells. The test is described as follows: flow cytometry, A431 cells (c-MET+ EGFR+++).
Test [11] has as its target T5, EGFR on cells. The test is described as follows: flow cytometry, EBC-1 cells (c-MET+++ EGFR++).
In test [12] the target is T5, EGFR on cells. The test is described as follows: flow cytometry, MKN-45 cells (c-MET+++ EGFR++).
Test [13] addresses T6, EGFR (soluble extracellular domain) (human, UniProt P00533).
T6 construct: soluble extracellular domain; also called Human EGFR extracellular domain, R&D Systems 1095-ER
The test is described as follows: BLI (Octet), antibody on anti-human Fc biosensors, soluble EGFR ECD as analyte.

Test [14] has as its target T7, c-MET and EGFR co-expressed on cells (human, UniProt P08581;P00533).
T7 construct: endogenous receptor on the cell surface; not a complex: two separate receptors on the same cell; used as target only for bispecific c-MET x EGFR molecules, whose cell staining cannot be split between the two arms; also called cells that carry both receptors: NCI-H441, EBC-1, A431, MKN-45, A549, HepG2 (cell line under assay)
The test is described as follows: flow cytometry, A549 cells (c-MET+ EGFR++).

Test [15] has as its target T7, c-MET and EGFR co-expressed on cells. The test is described as follows: flow cytometry, HepG2 cells (c-MET+ EGFR+).
For test [16] the target is unchanged. The test is described as follows: flow cytometry, A431 cells (c-MET+ EGFR+++).
The target is the same in test [17]. The test is described as follows: flow cytometry, EBC-1 cells (c-MET+++ EGFR++).
Test [18] has the same target. The test is described as follows: flow cytometry, MKN-45 cells (c-MET+++ EGFR++).
For test [19] the target is unchanged. The test is described as follows: flow cytometry on NCI-H441 cells (express c-MET and EGFR), FITC anti-human Fc, n=3.

B1: oa B10 (antibody, V domains shown)
VH: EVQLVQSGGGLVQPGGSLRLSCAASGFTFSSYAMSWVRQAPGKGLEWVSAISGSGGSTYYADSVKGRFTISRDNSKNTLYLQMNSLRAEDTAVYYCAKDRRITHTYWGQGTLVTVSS
VL: QSVLTQPPSTSGTPGQRVTISCFGSSSNVGVNTVNWYRQLPGTAPKLLIYDNNLRPSGVPERFSGSKSGTSASLAITGLQAEDEGDYYCQSYDSSLSDVVFGGGTKLTVLG
notes: one-armed (monovalent) anti-c-MET SEED molecule; also called one-armed B10
What is called Kd is a measure of binding affinity in units of concentration. Usually koff stands for a measure of how fast the partners let go of each other. As usually defined, the kon is the rate constant with which the complex forms. Turning to B1, the “MFI at 100 nM” value in test [1] turned out to be 130; with c-MET on cells [2] it was 69; in the test with c-MET on cells [3], 103; with c-MET on cells [4], 39; in the test with c-MET on cells [5], 952; in the test with c-MET on cells [6], 916. Further, the dissociation constant Kd in [7] is 12 nM. In [7], the koff is 0.0012 s⁻¹. Also, the kon in test [7] amounted to 100000 M⁻¹ s⁻¹.

B2: oa 425 (antibody, V domains shown)
VH: QVQLVQSGAEVKKPGASVKVSCKASGYTFTSHWMHWVRQAPGQGLEWIGEFNPSNGRTNYNEKFKSKATMTVDTSTNTAYMELSSLRSEDTAVYYCASRDYDYDGRYFDYWGQGTLVTVSS
VL: DIQMTQSPSSLSASVGDRVTITCSASSSVTYMYWYQQKPGKAPKLLIYDTSNLASGVPSRFSGSGSGTDYTFTISSLQPEDIATYYCQQWSSHIFTFGQGTKVEIKR
notes: one-armed (monovalent) anti-EGFR SEED molecule
On to B2, for which the “MFI at 100 nM” value in test [8] worked out at 170; with EGFR on cells [9], 50; with EGFR on cells [10], 1150; with c-MET on cells [4], 17; in the test with EGFR on cells [11] it was 212; in the test with EGFR on cells [12], 184. In addition, the binding result in the test with c-MET on cells [4] was “no binding (tested: 100 nM)”. Binding in [13] was characterised by a dissociation constant (Kd) of 22 nM. Further, in [13], the koff was found to be 0.012 s⁻¹. Besides, in test [13], the kon is 530000 M⁻¹ s⁻¹.

B3: oa 225-L (antibody, V domains shown)
VH: EVQLVQSGAEVKKPGASVKVSCKASGFSLTNYGVHWMRQAPGQGLEWIGVIWRGGNTDYNTPFTSRVTITSDKSTSTAYMELSSLRSEDTAVYYCARALTYYDYEFAYWGQGTLVTVSS
VL: DIQMTQSPSSLSASVGDRVTITCRASQSIGTNIHWYQQKPGKAPKLLIKYASESISGVPSRFSGSGYGTDFTLTISSLQPEDVATYYCQQNNNWPTTFGQGTKVEIK
notes: as for B2
On to B3, for which the “MFI at 100 nM” value in [8] was 91; with EGFR on cells [9], 22; with EGFR on cells [10], 1260; in the test with c-MET on cells [4], 17; with EGFR on cells [11], 137; in the test with EGFR on cells [12], 83. In addition, in the test with c-MET on cells [4], the binding result is listed as “no binding (tested: 100 nM)”. The same molecule yielded a dissociation constant (Kd) in test [13] of 220 nM. The same molecule gave a koff in [13] of 0.14 s⁻¹. The molecule further registered a kon in test [13] of 610000 M⁻¹ s⁻¹.

B4: B10v5x225-M (bispecific c-MET x EGFR SEEDbody) (bispecific antibody, V domains shown)
VH 1: not shown
VL 1: EPVLTQPPSVSVAPGETATIPCGGDSLGSKIVHWYQQRPGQAPLLVVYDDAARPSGIPERFSGSKSGTTATLTISSVEAGDEADYFCQVYDYHSDVEVFGGGTKLTVLGQPKAA
VH 2: EVQLVQSGAEVKKPGASVKVSCKASGFSLTNYGVHWMRQAPGQGLEWIGVIWSGGNTDYNTPFTSRVTITSDKSTSTAYMELSSLRSEDTAVYYCARALTYYDYEFAYWGQGTLVTVSS
VL 2: DIQMTQSPSSLSASVGDRVTITCRASQSIGTNIHWYQQKPGKAPKLLIKYASESISGVPSRFSGSGYGTDFTLTISSLQPEDVATYYCQQNYNWPTTFGQGTKVEIK
notes: SEEDbody format (IgG1 hinge-CH2-SEED CH3)
In the case of B4, the “MFI at 100 nM” value amounted to 383 in test [14]; 793 in [15]; 1290 in test [16]; 457 with c-MET on cells [4]; 2280 in test [17]; 1270 in test [18]. Besides, the Kd in test [13] worked out at 4.7 nM; in test [7] it was 0.37 nM. The results for the dissociation rate constant (koff) in test [13] and in test [7] were 0.017 s⁻¹ and 0.00015 s⁻¹, respectively. In addition, the kon is 3.6e+06 M⁻¹ s⁻¹ in test [13] and 400000 M⁻¹ s⁻¹ in test [7].

B5: CS06x225-H (bispecific c-MET x EGFR SEEDbody) (bispecific antibody, V domains shown)
VH 1: QVQLQQSGAEVKKPGSSAKVSCKASGGTFSSNAISWVRQAPGQGLEWMGGIIPIFGTAIYAQKFQGRVTITADESTSTAYMELSSLRSEDTAVYYCARDQRGYYYYYYYGMDVWGQGTTVTVSS
VL 1: QLVLTQSPSVSVAPGKTARITCGGNNIRNVGVHWYQKKPGQAPILVVYDDDDRPSGVPERFSGSNSGNTATLTISRVEAGDEADYYCQVWDSATDQRVFGGGTKLTVLGQPKAG
VH 2: EVQLVQSGAEVKKPGASVKVSCKASGFSLTNYGVHWMRQAPGQGLEWIGVIWSGGNTDYNTPFTSRVTITSDKSTSTAYMELSSLRSEDTAVYYCARALDYYDYEFAYWGQGTLVTVSS
VL 2: DIQMTQSPSSLSASVGDRVTITCRASQSIGTNIHWYQQKPGKAPKLLIKYASESISGVPSRFSGSGYGTDFTLTISSLQPEDVATYYCQQNNEWPNTFGQGTKVEIK
notes: The rest is a SEEDbody: IgG1 hinge-CH2-SEED CH3 (AG/GA)
The EC50 (read off the curve) is the concentration giving half of the maximal effect. Take B5: the “MFI at 100 nM” value in test [14] came to 292; in test [15] it was 198; in [16] it was 1860; with c-MET on cells [4] it was 164; in test [17], 1560; in test [18], 1550. The equilibrium dissociation constant (Kd) in [13] and in test [7] was 0.12 nM in each case. The koff in test [13] and in test [7] was 0.00039 s⁻¹ throughout. Further, the kon in test [13] and in test [7] was 3.3e+06 M⁻¹ s⁻¹ in each case. Besides, in test [19], the “EC50 (read off the curve)” value is ~0.3 nM.

B6: oa225-M (antibody, V domains shown)
VH: EVQLVQSGAEVKKPGASVKVSCKASGFSLTNYGVHWMRQAPGQGLEWIGVIWSGGNTDYNTPFTSRVTITSDKSTSTAYMELSSLRSEDTAVYYCARALTYYDYEFAYWGQGTLVTVSS
VL: DIQMTQSPSSLSASVGDRVTITCRASQSIGTNIHWYQQKPGKAPKLLIKYASESISGVPSRFSGSGYGTDFTLTISSLQPEDVATYYCQQNYNWPTTFGQGTKVEIK
notes: as for B2
For the molecule B6, the “MFI at 100 nM” value in test [8] stood at 138; with EGFR on cells [9], 40; in the test with EGFR on cells [10] it was 1500; with c-MET on cells [4], 19; with EGFR on cells [11], 189; with EGFR on cells [12], 144. For the same molecule, the binding result with c-MET on cells [4] is “no binding (tested: 100 nM)”. Moreover, the Kd in test [13] is 4.4 nM. For the same molecule, the koff in [13] was 0.016 s⁻¹. In [13], this molecule showed a kon of 3.7e+06 M⁻¹ s⁻¹.

B7: B10v5x225-H (bispecific c-MET x EGFR SEEDbody) (bispecific antibody, V domains shown)
VH 1: not shown
VL 1: EPVLTQPPSVSVAPGETATIPCGGDSLGSKIVHWYQQRPGQAPLLVVYDDAARPSGIPERFSGSKSGTTATLTISSVEAGDEADYFCQVYDYHSDVEVFGGGTKLTVLGQPKAA
VH 2: EVQLVQSGAEVKKPGASVKVSCKASGFSLTNYGVHWMRQAPGQGLEWIGVIWSGGNTDYNTPFTSRVTITSDKSTSTAYMELSSLRSEDTAVYYCARALDYYDYEFAYWGQGTLVTVSS
VL 2: DIQMTQSPSSLSASVGDRVTITCRASQSIGTNIHWYQQKPGKAPKLLIKYASESISGVPSRFSGSGYGTDFTLTISSLQPEDVATYYCQQNNEWPNTFGQGTKVEIK
notes: hu225-H); SEEDbody format (IgG1 hinge-CH2-SEED CH3)
Regarding B7, the “MFI at 100 nM” value in test [14] came out at 335; in [15], 352; in test [16], 1760; in the test with c-MET on cells [4], 222; in [17], 2060; in test [18], 1330. The equilibrium dissociation constant (Kd) in test [13] was found to be 0.15 nM; in test [7], 0.36 nM. Further, the off-rate constant (koff) stood at 0.00053 s⁻¹ in test [13] and 0.00015 s⁻¹ in [7]. Also, the kon came out at 3.5e+06 M⁻¹ s⁻¹ in test [13] and 400000 M⁻¹ s⁻¹ in test [7]. In addition, in [19], the 50% effective concentration (EC50 (read off the curve)) was ~0.5 nM.

Values taken from patent publication US20180326085A1 (Merck KGaA, published 2018).
